The values below come from PMC6105893.

For this data set, the target named is T1, LeuO (rLeuO) (Vibrio vulnificus MO6-24/O?) (UniProt A0A087INQ4).
T1 sequence: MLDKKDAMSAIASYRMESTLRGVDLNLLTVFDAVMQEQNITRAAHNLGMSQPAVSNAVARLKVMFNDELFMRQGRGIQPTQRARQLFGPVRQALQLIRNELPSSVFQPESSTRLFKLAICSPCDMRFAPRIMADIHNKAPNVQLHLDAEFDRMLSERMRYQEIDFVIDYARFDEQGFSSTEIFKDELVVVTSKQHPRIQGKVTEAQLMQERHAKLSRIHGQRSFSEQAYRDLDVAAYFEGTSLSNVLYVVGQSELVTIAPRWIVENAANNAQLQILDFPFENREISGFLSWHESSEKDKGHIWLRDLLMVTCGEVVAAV
In words: EMSA. The settings on record: 10 mM Tris-HCl pH 7.4, 10 mM KCl, 1 mM EDTA, 0.1 mM DTT, 50 ug/ml BSA, 5% glycerol, 1 ug poly(dI-dC), 10 ng probe in 20 ul, 30 min at 37 C; 6% neutral …. A general note: In EMSA bound probe runs differently from free probe, usually more slowly.

Consider “GAGTTTGACGCTAAAAAATAGTGATGTGCAGCAAAAATAAGTAAAAGTTTACGCTGATAGGCTCGAAAAGGCTTGTCAGCGTTTTTTTTGGGAGCTAAGTTAGAGCTCGATGGCTGCCAGCCCTTTTAAGATAAGGCTTGGCGCTAATTTTTAGTATTAATGGAACGAAAGTCATCTAAAAAAATAATCACAGATGGCACAAAGGGGAATCACAGTGAACAAAACTCAACTAGTAGAATCAATCGCTGCAAACGCAGAT (double strand) [vhuB upstream region]”, for which the binding entry was “binds”.
